In the DeepSol protein solubility set:

experiment: soluble on expression in E. coli; label from the status in PepcDB or PDB records

Row | Sequence | soluble on expression in E. coli
1 | MGSDKIHHHHHHMSSEEDYFDELEYDLADEVNEEKEDIQTKKLTTVNCQTEKFNPFEILPESIELFRTLALISPDRLSLSETAQILPKIVDLKRILQQQEIDFIKLLPFFNEIIPLIKSNIKLMHNFLISLYSRRFPELSSLIPSPLQYSKVISILENENYSKNESDELFFHLENKAKLTREQILVLTMSMKTSFKNKEPLDIKTRTQILEANSILENLWKLQEDIGQYIASKISIIAPNVCFLVGPEIAAQLIAHAGGVLEFSRIPSCNIASIGKNKHLSHELHTLESGVRQEGYLFASDMIQKFPVSVHKQMLRMLCAKVSLAARVDAGQKNGDRNTVLAHKWKAELSKKARKLSEAPSISETKALPIPEDQPKKKRAGRKFRKYKEKFRLSHVRQLQNRMEFGKQEQTVLDSYGEEVGLGMSNTSLQQAVGATSGSRRSAGNQAKLTKVMKHRISEANQQADEFLISLGHNTEQPNLSPEMVQMHKKQHTNPEEETNWFSGHG | not soluble
2 | MSLTNSSKSFTKFMAASAVFTMGFLSVPTAGAEQTNQIANKPQAIQWHTNLTNERFTTIAHRGASGYAPEHTFQAYDKSHNELKASYIEIDLQRTKDGHLVAMHDETVNRTTNGHGKVEDYTLDELKQLDAGSWFNKKYPKYARASYKNAKVPTLDEILERYGPNANYYIETKSPDVYPGMEEQLLASLKKHHLLNNNKLKNGHVMIQSFSDESLKKIHRQNKHVPLVKLVDKGELQQFNDQRLKEIRSYAIGLGPDYTDLTEQNTHHLKDLGFIVHPYTVNEKADMLRLNKYGVDGVFTNFADKYKEVIKEGHHHHHH | soluble
3 | MPQPEQLPGPNADIWNWQLQGLCRGMDSSMFFHPDGERGRARTQREQRAKEMCRRCPVIEACRSHALEVGEPYGVWGGLSESERDLLLKGTMGRTRGIRRTA | not soluble
4 | CGVFGIWGHEEAPQITYYGLHSLQHRGQEGAGIVATDGEKLTAHKGQGLITEVFQNGELSKVKGKGAIGHVRYATAGGGGYENVQPLLFRSQNNGSLALAHNGNLVNATQLKQQLENQGSIFQTSSDTEVLAHLIKRSGHFTLKDQIKNSLSMLKGAYAFLIMTETEMIVALDPNGLRPLSIGMMGDAYVVASETCAFDVVGATYLREVEPGEMLIINDEGMKSERFSMNINRSICSMEYIYFSRPDSNIDGINVHSARKNLGKMLAQESAVEADVVTGVPDSSISAAIGYAEATGIPYELGLIKNRYVGRTFIQPSQALREQGVRMKLSAVRGVVEGKRVVMVDDSIVRGTTSRRIVTMLREAGATEVHVKISSPPIAHPCFYGIDTSTHEELIASSHSVEEIRQEIGADTLSFLSVEGLLKGIGRKYDDSNCGQCLACFTGKYPTEIYQDTVLPHVK | soluble
5 | SLNILFDIGHPKDVNVFKNVIWKLQERGHEIKIVARAKENTKRVLEEYGFEYEVCKYYKTMSGKALGIITNDIHLYNIAKKFQPDIFVSPGSPYSAHVSRLLRKPHIAFSDTEIAGLVMKLTFPFTDKIYTSSSFYLDLGPKQIRFNGYYELAYLHSNYFTPNRDVLKKYNLDEGYIILRLSALSSHHDIGAKGFTFSSEEELIDFIRELERYGRVIVSSETKQWKTISDYELKFKPGDLHDLLYYSKMCIGEGATMASEAAILGVPAIYVSNTHRGYLDELETYELAFTIQEREEALKKAKSLLEEDSLVKNSKEKREKLLKEKTDVVEFMVNAIEGSYKL | soluble
6 | MGSDKIHHHHHHMEQDDKKLFVLDTNVLLHEPLAIYSFKEHDVVVPMTVLEELDQIKDRKRDVSRDARVAIRALEDILGGQTTPEEIVSGVPLPKREGHGDAVGSLSIFPDHQLEFTQASLPGDNNDNRIINTALHLQNQFAPRHVVLVTKDINMRLKAKGAGINLVEDYRTDQLIDDIRFLTKGFHQFEGDFWARKEHVNTETQGRHTVHRVPVKEVGEENFYTNQYLIDEDSNFCGRVLSNNDEELEILDLGRDRLLNLDAWGIKPKNVYQGMAMQALLDPDIDLVILTGPAGCGKTLLAMAAALEMVVERGLYDKVIVTRNTPEIAESIGFLPGTEEEKMAPWLAAITDTLEVLHKHDVNPSGSMNYIMDKANIQFKSINFMRGRSIQNSVVLLDECQNLTASQIKTMITRMGEGTKLICSGNLAQIDSNYLTAVTSGLTYIVERFKNFDGSANIYLNGVVRSRLAEFAEENL | not soluble
7 | MNNAALRHWKQQQRARLRELRQQVPVTQRMLWSDAITAVLTQGFPFLENQRIGFYWPHQGEYDPIPAMTFLRTRGATLALPEVISKDEPLRFIEWWPEAPMKKDIYGIPFPDNTRGITVDSIIIPLLGFDEQGYRLGYGSGYFDRTLAAMSPRPLAIGVAFEILRLPTIHPQQHDIPMDYIVTEQSILHRTDTGLVPLTAPIVQSETALEHHHHHH | soluble
8 | SWYIEEDLEKVNSNYFEEKDYELCRNELETTILDSVMKRVKGLEKVGIIYSGGVDSTLISKLASEYCEVILYSVGSENSEDLIYAERAAKDMGLDFRKKIISEDEFEEYVVKVAKAIDELDVMKLSVGIPILAASEMAKEDGIKVLLSGQGADELFAGYNRYQRILNEKGEDGLKESIISDVFDIHKINLERDDHCTMANGVELRVPFLDKFVIDVGLSIPVEYKIEEPRKKILRDIASKYVPDYIAQRPKKAAQYGSGSEKM | not soluble
9 | MGSDKIHHHHHHMMFKWPWKADDESGNAEMPWEQALAIPVLAHLSSTEQHKLTQMAARFLQQKRLVALQGLELTPLHQARIAMLFCLPVLELGIEWLDGFHEVLIYPAPFIVDDEWEDDIGLVHNQRVVQSGQSWQQGPVVLNWLDIQDSFDASGFNLVVHEVAHKLDTRNGDRASGVPLIPLREVAGWEHDLHAAMNNIQDEIDLVGESAASIDAYAATDPAECFAVLSEYFFSAPELFAPRFPALWQRFCHFYRQDPLARRRENGLQDEGDRRIVH | not soluble
10 | MLLEERLSQISQIIDKEGSATIDFLAQKLEVSKDTIRRDLIKLESRKKLHRVHGGAIPIGKEAEILNYEERSNISTSLKKKIASKIKNLIKDHSTLIFDSSTTVEVAIKQLDNFSISTITNSLTNAILLSKYEMATVQLLPGKLNKNQLFLYGAETVEKLSQYQVDFTILGVFALSNNGLFIHTEEEGLVKRKMIQQGKQVIAIADHTKLNKEGFFKICDLKEIDYLITDEKIEGELMNNLNDNNVKVVTINELEHHHHHH | soluble
11 | MSLAYISLKSNLENPKYSLNVAHLYGDLMNTYGDNGNILMLKYVGEKLGAEMTFNIVSLGDTFAKEDYDLVFWGGGQDYEQEIIADQSLIDLSAPLKDYIESEKPLLAICGGYQMLGQYYVNSEGTKIQGTGILGHYTENLRTDRFIGDIETHNEEFGETYYGFENHSGITYLSDDEKPLGTVVYGGGNNPDDQTEGLIYKNTFGTYFHGPILSRNARLAYRLVTTALYQKYGEEIQLPAFEEILADEDKGQQIGDLKRKVEKEGHHHHHH | soluble
12 | GPGSMSSSDQFLVDELRSRLKRRRADIVRYLDGLFYEDCRRIIECVSELDSDNLFLRNPSSLPDYAQHVTRPMYWELIQRKLQRYEYRAAADFMADMRAVVNNCYLYNGIQAPASKLARAIEVLMEDRFVTELRAAPVQPAEVK | not soluble
13 | MGSDKIHHHHHHMQNPQQVSASKTLSPILVQGAMDIEVETLIAALGKVTVNTFGSWTFWEGELSGHPVVVSRTEIGLANAAAATTLAIAHYRPKLIINQGTAGGHDPKLYRGDIVIGETSFNMGSYLTKLTPKGQGIHPTQWQNFDMTMYLRENGEVVKHNHFKADPALVEVALSQAHHYTKGNVVKGIIGTGDEWNRELDRINWLHHTFGTAVEEMETSAAALVAEAYKLPFVSIRILSNTDQHDQDCDPQTAVDCQQFVLNIIQQLINTTK | not soluble
14 | MGHHHHHHSHMYKGRTVLQKVVGHPSCTFLYGPPDPAVRATDPQQVAFPSPAELPDQKQLRYTEELLRHVAPGLHLELRGPQLWARRMGKCKVYWEVGGPPGSASPSTPACLLPRNCDTPIFDFRVFFQELVEFRARQRRGSPRYTIYLGFGQDLSAGRPKEKSLVLVKLEPWLCRVHLEGTQREGVSSLDSSSLSLCLSSANSLYDDIECFLMELEQPA | not soluble
15 | MAHHHHHHMLVRSITKCVVPLIKATSYTSSYIVEHPPTPVRLTSMLPLHNKSMPTPLLDPERLQEISCGTGQPAQRGRRKPLVWKRRKPWFDHQWSLDLQRIKKGPETPHFPDGTPFTQIRSFQSFAGRSWKINAGRRRKIRLSLKRGRRKLL | not soluble
